# From paper PMC11946523 (Toxins, 2025)
# Assays:
# [1] = biological target: recombinant C-terminal domain of the BoNT/A heavy chain (heavy chain receptor domain, HCR) (Clostridium botulinum serotype A, …, UniProt P0DPI1); experiment: SPR; Biacore; […] (50 ug/mL) […], in HBS-EP ([…]; 120 s flow, 600 s dissociation; […]; conditions: both partners purified
# [2] = biological target: Botulinum neurotoxin serotype A (BoNT/A) holotoxin (Clostridium botulinum serotype A, …, UniProt P0DPI1); experiment: as above; conditions: both partners purified
binder,measurement,setting,value
"HZ45 humanized monoclonal antibody (antibody, V domains shown, also called HZ45 mAb; HZ45 antibody; source: CHO-K1, transfected, purified from culture medium (ammonium sulfate, HIC-Phenyl)) VH: EVQLVQSGAEVKKPGASVKVSCKASGYTFTDYYINWVRQATGQGLEWLGESYPGSGTAFYNEKFKGKATLTADKSKNTAYMELSSLRSEDTAVYFCARSDGSPFAYWGQGTLVTVSS VL: DIQMTQSPSSLSASVGDRVTITCKASDYINNWLAWYQQKPGKAPKLLISGAISLETGVPSRFSGSGSGTDYTLTISSLQPEDFATYYCQQYWSPPLTFGQGTKVEIK",Kd,[1],0.0423 nM
same,Kd,[2],0.551 nM
